In publication PMC11510292, “Heterobivalent Dual-Target Peptide for Integrin-αvβ3 and Neuropeptide Y Receptors on Breast Tumor” (Pharmaceuticals, 2024):
Like-named read-outs stand apart in the source and are kept apart here.

What was measured:
[1] = Ex vivo biodistribution and blood clearance in healthy Balb/c mice; details: for tissue uptake at 5 min / tissue uptake at 0.5 h / tissue uptake at 1 h / tissue uptake at 2 h / tissue uptake at 4 h / tissue uptake at 6 h: mouse, 37 MBq, total radioactivity; for tissue uptake at 5 min: 5 min after IV injection; for tissue uptake at 0.5 h: 30 min after IV injection; for tissue uptake at 1 h: 1 h after IV injection; for tissue uptake at 2 h: 2 h after IV injection; for tissue uptake at 4 h: 4 h after IV injection; for tissue uptake at 6 h: 6 h after IV injection
Description: The ex vivo biodistribution analysis performed with healthy Balb/c mice is presented in Figure 2 and Figure 3, and Table 1. Values are expressed as a percentage of injected activity per gram (%IA/g) of tissue and per milliliter (%IA/mL) of blood.
(§1) […] Animals were deeply anesthetized and euthanized at the corresponding biodistribution time point. Blood, brain, spleen, heart, stomach, liver, lungs, kidneys, pancreas, muscle, bone, small intestine, and large intestine were collected and weighed. The radioactivity of each organ/tissue was then determined using the above-mentioned automatic gamma counter. The radioactivity was evaluated as the percentage of injected activity per gram of organ/tissue (%IA/g), using the same injected dose activity as a standard. Receptor-blocking studies in tumor models were also carried out by co-administration of 100 μg of cold-conjugated peptide along with radiopeptide.

[2] = Biodistribution in SCID mice bearing MDA-MB-231 xenografts; type: in vivo; details: female, SCID, mouse, total radioactivity, MDA-MB231 model, 60 min p.i., 0.1 mL/18.5 MBq IV
Description: To evaluate the uptake of the radiolabeled peptide by breast tumors, additional biodistribution studies were performed in SCID mice bearing MCF-7 and MDA-MB-231 xenografts (Table 2). […] The tumor uptakes of the radiolabeled conjugate were 9.30 ± 3.25% for MCF-7 and 4.93 ± 1.01% for MDA-MB-231 (Figure 5). The tumor-to-muscle ratios were 5.65 ± 0.94 for the MCF-7 model and 7.78 ± 3.20 for the MDA-MB-231 model (Figure 6).
The animals used in this experiment were provided by the Nuclear and Energy Research Institute (IPEN/CNEN-SP) vivarium. Every effort was made to minimize animal suffering per International Ethical Guidelines. The experimental protocols used in this study were approved by the Scientific Ethics Committee of the IPEN/CNEN-SP. Adult female SCID mice were maintained under controlled environmental conditions (12 h light-dark cycle; constant temperature 21 ± 2 °C), with free access to water and food. Suspensions of cells (5 × 10^6 in 0.1 mL) were subcutaneously injected into the upper back regions of the mice.
as §1

[3] = bone, mean ± SD n = 5, read-out: Bone uptake
[4] = brain, mean ± SD n = 5, read-out: Brain uptake
[5] = heart, mean ± SD n = 5, read-out: Heart uptake
[6] = lung, mean ± SD n = 5, read-out: Lung uptake
[7] = muscle, mean ± SD n = 5, read-out: Muscle uptake
[8] = pancreas, mean ± SD n = 5, read-out: Pancreas uptake
[9] = spleen, mean ± SD n = 5, read-out: Spleen uptake
[10] = stomach, mean ± SD n = 5, read-out: Stomach uptake

With `CCCC[C@H](NC(=O)[C@H](CCCNC(=N)N)NC(=O)[C@H](Cc1c[nH]c2ccccc12)NC(=O)[C@H](CSCC(=O)NCCCC[C@@H]1NC(=O)[C@@H](Cc2ccccc2)NC(=O)[C@H](CC(=O)O)NC(=O)CNC(=O)[C@H](CCCNC(=N)N)NC1=O)NC(=O)[C@@H]1CCCN1C(=O)[C@H](CC(N)=O)NC(=O)[C@@H](NC(=O)COCCOCCNC(=O)c1ccc(NN)nc1)[C@@H](C)CC)C(=O)N[C@@H](CCCNC(=N)N)C(=O)N[C@@H](Cc1ccc(O)cc1)C(N)=O` [[^99mTc]HYNIC-cRGDfk-NPY, metal not drawn] the Blood half-life ([1]; IV, 0.05 mL/18.5 MBq, exponential decay fit of %IA/mL) was 23.04 min, the “decrease in blood activity” value ([1]; IV, within 1 h) was “approximately 90%” and the “crossing of blood-brain barrier” value ([1]; from low brain uptake) was “did not cross the blood–brain barrier”. The tissue uptake at 5 min [1, 3] was 3.19 ± 0.76 %ID/g, the tissue uptake at 0.5 h [1, 3] was 3.71 ± 1.37 %ID/g and the tissue uptake at 1 h [1, 3] was 2.52 ± 1.67 %ID/g. It also gave a tissue uptake at 2 h [1, 3] of 0.71 ± 0.22 %ID/g, a tissue uptake at 4 h [1, 3] of 0.46 ± 0.14 %ID/g and a tissue uptake at 6 h [1, 3] of 0.54 ± 0.28 %ID/g. The tissue uptake at 5 min [1, 4] was 0.37 ± 0.11 %ID/g, the tissue uptake at 0.5 h [1, 4] was 0.22 ± 0.15 %ID/g and the tissue uptake at 1 h [1, 4] was 0.12 ± 0.03 %ID/g. The tissue uptake at 2 h [1, 4] was 0.07 ± 0.01 %ID/g, the tissue uptake at 4 h [1, 4] was 0.04 ± 0.01 %ID/g and the tissue uptake at 6 h [1, 4] was 0.04 ± 0.01 %ID/g. The tissue uptake at 5 min [1, 5] was 4.3 ± 1.32 %ID/g, the tissue uptake at 0.5 h [1, 5] was 3.21 ± 1.22 %ID/g and the tissue uptake at 1 h [1, 5] was 1.04 ± 0.23 %ID/g. The tissue uptake at 2 h [1, 5] was 0.55 ± 0.07 %ID/g, the tissue uptake at 4 h [1, 5] was 0.35 ± 0.12 %ID/g and the tissue uptake at 6 h [1, 5] was 0.33 ± 0.09 %ID/g. It also gave a tissue uptake at 5 min [1, 6] of 9.8 ± 3.16 %ID/g, a tissue uptake at 0.5 h [1, 6] of 4.8 ± 2.67 %ID/g and a tissue uptake at 1 h [1, 6] of 2.64 ± 0.83 %ID/g. For the same compound, the tissue uptake at 2 h [1, 6] was 1.17 ± 0.2 %ID/g, the tissue uptake at 4 h [1, 6] was 0.63 ± 0.17 %ID/g and the tissue uptake at 6 h [1, 6] was 1.65 ± 2.02 %ID/g. For the same compound, the tissue uptake at 5 min [1, 7] was 2.16 ± 0.62 %ID/g, the tissue uptake at 0.5 h [1, 7] was 1.5 ± 0.41 %ID/g and the tissue uptake at 1 h [1, 7] was 0.68 ± 0.33 %ID/g. The tissue uptake at 2 h [1, 7] was 0.39 ± 0.09 %ID/g, the tissue uptake at 4 h [1, 7] was 0.22 ± 0.07 %ID/g and the tissue uptake at 6 h [1, 7] was 0.21 ± 0.03 %ID/g. It also gave a tissue uptake at 5 min [1, 8] of 3.39 ± 0.92 %ID/g, a tissue uptake at 0.5 h [1, 8] of 2.52 ± 0.89 %ID/g and a tissue uptake at 1 h [1, 8] of 1.17 ± 0.45 %ID/g. It also gave a tissue uptake at 2 h [1, 8] of 0.53 ± 0.1 %ID/g, a tissue uptake at 4 h [1, 8] of 0.35 ± 0.12 %ID/g and a tissue uptake at 6 h [1, 8] of 0.34 ± 0.11 %ID/g. For the same compound, the tissue uptake at 5 min [1, 9] was 6.06 ± 2.9 %ID/g, the tissue uptake at 0.5 h [1, 9] was 6.14 ± 2.29 %ID/g and the tissue uptake at 1 h [1, 9] was 3.41 ± 1.17 %ID/g. For the same compound, the tissue uptake at 2 h [1, 9] was 2.22 ± 0.37 %ID/g, the tissue uptake at 4 h [1, 9] was 1.69 ± 0.34 %ID/g and the tissue uptake at 6 h [1, 9] was 1.98 ± 0.63 %ID/g. For the same compound, the tissue uptake at 5 min [1, 10] was 8.05 ± 2.56 %ID/g, the tissue uptake at 0.5 h [1, 10] was 7.17 ± 1.38 %ID/g and the tissue uptake at 1 h [1, 10] was 3.97 ± 0.78 %ID/g. For the same compound, the tissue uptake at 2 h [1, 10] was 2.62 ± 0.68 %ID/g, the tissue uptake at 4 h [1, 10] was 1.81 ± 0.5 %ID/g and the tissue uptake at 6 h [1, 10] was 1.79 ± 0.58 %ID/g. For the same compound, the tissue uptake at 1 h ([2]; bone, Block with excess cold peptide, n = 3, read-out: Bone uptake) was 0.53 ± 0.16 %ID/g, the tissue uptake at 1 h ([2]; bone, Non-Block, n = 5, read-out: Bone uptake) was 1.22 ± 0.28 %ID/g and the tissue uptake at 1 h ([2]; brain, Block with excess cold peptide, n = 3, read-out: Brain uptake) was 0.09 ± 0.01 %ID/g.
